Source: the RNAGym collection of RNA variant scans (doi:10.1093/nar/gkz1192)

B1: CPEB3 Ribozyme (parent)
chain: UAACAGGGGGCCACAGCAGAAGCGUUCACGUCGCAGCCCCUGUCAGAUUCUGGUGAAUCUGCGAAUUCUGCUGUAUAUCUC

Variants of: B1
Assay: self-cleavage, relative activity (ratio to wild type); higher = more cleavage; in vitro, sequencing
Summary of the method: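 CPEB3 self-cleaving ribozyme mutant libraries were made by rounds of error-prone PCR, barcoded, and transcribed in vitro with T7 RNA polymerase for 5 hours at 37°C. Cleavage occurred during transcription and a 15 min DNase I step before EDTA stop. RNAs were reverse transcribed with template switching and Illumina-sequenced, with DNA sequencing mapping barcodes to variants. Relative activity is the variant's cleaved/total read fraction divided by wild type's (minimum 5 reads), averaged across three batches.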

Variant | self-cleavage
UAACAGGGGGCCACAGCAGAAGCGAUCACGUCGCAGCCCCUGUCAAAUUCUGGUGAAUCUGCGAAUUCUGCUGUAUAUCUC | 0.15
UAACAGGGGGCCACAGCAGAAGCGAUCACGUCGCAGCCCCUGUCAGAUUCUGGUGAAUCUGCGAAUUAUGCUGUAUAUCUC | 0.19
UAACAGGGGGCCACAGCAGAAGCGAUCACGUCGCAGCCCCUGUCAGAUUCUGGUGAAUCUGCGAAUUCUGCUAUAUAUCUC | 0.36
UAACAGGGGGCCACAGCAGAAGCGAUCACGUCGCAGCCCCUGUCAGAUUCUGGUGAAUCUGCGGAUUCUGCUGUAUAUCUC | 0.33
UAACAGGGGGCCACAGCAGAAGCGAUCACGUCGCAGCCCCUGUCAGAUUCUGGUGAAUCUGCGUAUUCUGCUGUAUAUCUC | 0.19
UAACAGGGGGCCACAGCAGAAGCGAUCAUGUCGCAGCCCCUGUCAGAUUCUGGUGAAUCUGCGAAUUCUGCUGUAUAUCUC | 0.22
UAACAGGGGGCCACAGCAGAAGCGAUCAGGUCGCAGCCCCUGUCAGAUUCUGGUGAAUCUGCGAAUUCUGCUGUAUAUCUC | 0.25
UAACAGGGGGCCACAGCAGAAGCGAUCACGUUGCAGCCCCUGUCAGAUUCUGGUGAAUCUGCGAAUUCUGCUGUAUAUCUC | 0.38
UAACAGGGGGCCACAGCAGAAGCGAUCACGUAGCAGCCCCUGUCAGAUUCUGGUGAAUCUGCGAAUUCUGCUGUAUAUCUC | 0.16
UAACAGGGGGCCACAGCAGAAGCGAUCACGUCGCAGCCCCUGUCAGAUUCUGGUGUAUCUGCGAAUUCUGCUGUAUAUCUC | 0.27
UAACAGGGGGCCACAGCAGAAGCGAUCACGUCGCAGCCCCUGUCAGAUUCUGGUGGAUCUGCGAAUUCUGCUGUAUAUCUC | 0.27
UAACAGGGGGCCACAGCAGAAGCGAUCACGCCGCAGCCCCUGUCAGAUUCUGGUGAAUCUGCGAAUUCUGCUGUAUAUCUC | 0.17
UAACAGGGGGCCACAGCAGAAGCGAUCACGACGCAGCCCCUGUCAGAUUCUGGUGAAUCUGCGAAUUCUGCUGUAUAUCUC | 0.16
UAACAGGGGGCCACAGCAGAAGCGAUCACGUCGCAGCUCCUGUCAGAUUCUGGUGAAUCUGCGAAUUCUGCUGUAUAUCUC | 0.23
UAACAGGGGGCCACAGCAGAAGCGAUCACGUCGCAGCACCUGUCAGAUUCUGGUGAAUCUGCGAAUUCUGCUGUAUAUCUC | 0.18
UAACAGGGGGCCACAGCAGAAGCGAUCACGUCCCAGCCCCUGUCAGAUUCUGGUGAAUCUGCGAAUUCUGCUGUAUAUCUC | 0.19
UAACAGGGGGCCACAGCAGAAGCGAUCACGUCGCAGCCCCUGUCUGAUUCUGGUGAAUCUGCGAAUUCUGCUGUAUAUCUC | 0.19
UAACAGGGGGCCACAGCAGAAGCGAUCACGUCGCAGCCCCUGUCAGAUUCUGGUGAAUCUGCGACUUCUGCUGUAUAUCUC | 0.08
UAACAGGGGGCCACAGCAGAAGCGAUCACGUCGCAGCCCCUGUCAGAUUCUGGUGAAUCUGCGAGUUCUGCUGUAUAUCUC | 0.28
UAACAGGGGGCCACAGCAGAAGCGAUCACGUCGCAGCCCCUGUCAGAUUCUGGUGAAUCUGUGAAUUCUGCUGUAUAUCUC | 0.19
UAACAGGGGGCCACAGCAGAAGCGAUCACGUCGCAGCCCCUGUCAGAUUCUGGUGAAUCUGGGAAUUCUGCUGUAUAUCUC | 0.39
UAACAGGGGGCCACAGCAGAAGCGAUCACGUCGCAGCCCCUGUCAGAUUCUGGUGAAUCUGAGAAUUCUGCUGUAUAUCUC | 0.16
UAACAGGGGGCCACAGCAGAAGCGAUCACGUCGCAGCCCCCGUCAGAUUCUGGUGAAUCUGCGAAUUCUGCUGUAUAUCUC | 0.28

Variant | self-cleavage
UAACAGGGGGCCACAGCAGAAGCGAUCACGUCGCAGCCCCGGUCAGAUUCUGGUGAAUCUGCGAAUUCUGCUGUAUAUCUC | 0.22
UAACAGGGGGCCACAGCAGAAGCGAUCACGUCGCAGCCCCAGUCAGAUUCUGGUGAAUCUGCGAAUUCUGCUGUAUAUCUC | 0.44
UAACAGGGGGCCACAGCAGAAGCGAUCACGUCGCAGCCCAUGUCAGAUUCUGGUGAAUCUGCGAAUUCUGCUGUAUAUCUC | 0.22
UAACAGGGGGCCACAGCAGAAGCGAUCACGUCGCAGCCCCUGUAAGAUUCUGGUGAAUCUGCGAAUUCUGCUGUAUAUCUC | 0.17
UAACAGGGGGCCACAGCAGAAGCGAACACGUCGCAGCCCCUGUCAGAUUCUGGUGAAUCUGCGAAUUCUGCUGUAUAUCUC | 0.39
UAACAGGGGGCCACAGCAGAAGCGAGCACGUCGCAGCCCCUGUCAGAUUCUGGUGAAUCUGCGAAUUCUGCUGUAUAUCUC | 0.29
UAACAGGGGGCCACAGCAGAAGCGACCACGUCGCAGCCCCUGUCAGAUUCUGGUGAAUCUGCGAAUUCUGCUGUAUAUCUC | 0.28
UAACAGGGGGCCACAGCAGAAGCGAUCACGUCGCAGCCCCUAUCAGAUUCUGGUGAAUCUGCGAAUUCUGCUGUAUAUCUC | 0.2
UAACAGGGGGCCACAGCAGAAGCGAUCACGUCGCAGCCCCUUUCAGAUUCUGGUGAAUCUGCGAAUUCUGCUGUAUAUCUC | 0.28
UAACAGGGGGCCACAGCAGAAGCGAUCACGUCGCAGCCCCUGUCAGAUUAUGGUGAAUCUGCGAAUUCUGCUGUAUAUCUC | 0.41
UAACAGGGGGCCACAGCAGAAGCGAUUACGUCGCAGCCCCUGUCAGAUUCUGGUGAAUCUGCGAAUUCUGCUGUAUAUCUC | 0.15
UAACAGGGGGCCACAGCAGAAGCGAUCACGUCGCAGCCCCUGUCAGAUUCUGGUGAGUCUGCGAAUUCUGCUGUAUAUCUC | 0.3
UAACAGGGGGCCACAGCAGAAGCGAUCACGUCGCAGCCCCUGUCAGAUUCUGGUGAUUCUGCGAAUUCUGCUGUAUAUCUC | 0.18
UAACAGGGGGCCACAGCAGAAGCGAUCACGUCGCAGCCCCUGUCAGAUACUGGUGAAUCUGCGAAUUCUGCUGUAUAUCUC | 0.19
UAACAGGGGGCCACAGCAGAAGCGAUCACGUCGCAGCCCCUGUCAGAUGCUGGUGAAUCUGCGAAUUCUGCUGUAUAUCUC | 0.19
UAACAGGGGGCCACAGCAGAAGCGAUCACGUCGCAGCCCCUGUCAGAUCCUGGUGAAUCUGCGAAUUCUGCUGUAUAUCUC | 0.22
UAACAGGGGGCCACAGCAGAAGCGAUCACAUCGCAGCCCCUGUCAGAUUCUGGUGAAUCUGCGAAUUCUGCUGUAUAUCUC | 0.13
UAACAGGGGGCCACAGCAGAAGCGAUCACCUCGCAGCCCCUGUCAGAUUCUGGUGAAUCUGCGAAUUCUGCUGUAUAUCUC | 0.26
UAACAGGGGGCCACAGCAGAAGCGAUCACGUCGCAGCCCCUGUCAGAUUCUGGUGAAUCUGCGAAUUCUGCUGUGUAUCUC | 0.23
UAACAGGGGGCCACAGCAGAAGCGAUCACGUCGCAGCCCCUGUCAGAUUCUGGUGAAUCUGCGAAUUCUGCUGUUUAUCUC | 0.32
UAACAGGGGGCCACAGCAGAAGCGAUCACGUCGCAGCCCCUGUCAGAUUCUGAUGAAUCUGCGAAUUCUGCUGUAUAUCUC | 0.28
UAACAGGGGGCCACAGCAGAAGCGAUCACGUCGCAGCCCCUGUCAGAUUCUGGUGAAUCUGCGAAUUCUGCUGUAUAUCUU | 0.57
UAACAGGGGGCCACAGCAGAAGCGAUCACGUCGCAGCCCCUGUCAGAUUCUGGUGAAUCUGCGAAUUCUUCUGUAUAUCUC | 0.06

Variant | self-cleavage
UAACAGGGGGCCACAGCAGAAGCGAUCACGUCGCAGCCCCUGUCAGAUUCUGGUGAAUCUGCGAAUUCUCCUGUAUAUCUC | 0.07
UAACAGGGGGCCACAGCAGAAGCGAUCACGUCGCAGUCCCUGUCAGAUUCUGGUGAAUCUGCGAAUUCUGCUGUAUAUCUC | 0.34
UAACAGGGGGCCACAGCAGAAGCGAUCACGUCGCAGCCCCUGUCAGAUUCUGGUGAAUCUACGAAUUCUGCUGUAUAUCUC | 0.23
UAACAGGGGGCCACAGCAGAAGCGAUCACGUCGCAGCCCCUGUCAGAUUCUGGUGAAUCUUCGAAUUCUGCUGUAUAUCUC | 0.18
UAACAGGGGGCCACAGCAGAAGCGAUCACGUCGCAGCCCCUGUCAGAUUCUGGUGAAUCUGCGAAUUCUGCUGUAUAUUUC | 0.27
UAACAGGGGGCCACAGCAGAAGCGAUCACGUCGCAGCCCCUGUCAGAUUCUGGUGAAUCUGCAAAUUCUGCUGUAUAUCUC | 0.28
UAACAGGGGGCCACAGCAGAAGCGAUCACGUCGCAGCCCCUGUCAGAUUCUGGUGAAUCUGCUAAUUCUGCUGUAUAUCUC | 0.2
UAACAGGGGGCCACAGCAGAAGCGAUCACGUCGCAGCCCCUGCCAGAUUCUGGUGAAUCUGCGAAUUCUGCUGUAUAUCUC | 0.28
UAACAGGGGGCCACAGCAGAAGCGAUCACGUCGCAGCCCCUGACAGAUUCUGGUGAAUCUGCGAAUUCUGCUGUAUAUCUC | 0.21
UAACAGGGGGCCACAGCAGAAGCGAUCACGUCGCAGCCCCUGUCAGACUCUGGUGAAUCUGCGAAUUCUGCUGUAUAUCUC | 0.3
UAACAGGGGGCCACAGCAGAAGCGAUCACGUCGCAGCCCCUGUCAGAAUCUGGUGAAUCUGCGAAUUCUGCUGUAUAUCUC | 0.32
UAACAGGGGGCCACAGCAGAAGCGAUCACGUCGCAGCCCCUGUCAGUUUCUGGUGAAUCUGCGAAUUCUGCUGUAUAUCUC | 0.27
UAACAGGGGGCCACAGCAGAAGCGAUCACGUCGCAGCCCCUGUCAGGUUCUGGUGAAUCUGCGAAUUCUGCUGUAUAUCUC | 0.33
UAACAGGGGGCCACAGCAGAAGCGAUCACGUCGCAGCCCCUGUCAGAUUCUGGUGAAUCUGCGAAUUCUGCUGUAUUUCUC | 0.23
UAACAGGGGGCCACAGCAGAAGCGAUCACGUCGCAGCCCCUGUCAGAUUCUGGUGAAUCUGCGAAUUCUGCUGUAUCUCUC | 0.19
UAACAGGGGGCCACAGCAGAAGCGAUCACGUCGCAGCCCCUGUCAGAUUCUGGUGAAUCUGCGAAUUCUGCUGUAUGUCUC | 0.18
UAACAGGGGGCCACAGCAGAAGCGAUCACGUCGCAGCCCCUGUCAGAUUCUAGUGAAUCUGCGAAUUCUGCUGUAUAUCUC | 0.22
UAACAGGGGGCCACAGCAGAAGCGAUCACGUCGCAGCCCCUGUCAGAUUCUCGUGAAUCUGCGAAUUCUGCUGUAUAUCUC | 0.27
UAACAGGGGGCCACAGCAGAAGCGAUCACGUCGCAGCCCCUGUCAGAUUCUGGUGAAUUUGCGAAUUCUGCUGUAUAUCUC | 0.09
UAACAGGGGGCCACAGCAGAAGCGAUCACGUCGAAGCCCCUGUCAGAUUCUGGUGAAUCUGCGAAUUCUGCUGUAUAUCUC | 0.4
UAACAGGGGGCCACAGCAGAAGCGAUCACGUCGUAGCCCCUGUCAGAUUCUGGUGAAUCUGCGAAUUCUGCUGUAUAUCUC | 0.56
UAACAGGGGGCCACAGCAGAAGCGAUCACGUCGCAGCCCCUGUCAGAUUCAGGUGAAUCUGCGAAUUCUGCUGUAUAUCUC | 0.33
